Measurements as given in the supplement of paper PMC7877785.
± gives the uncertainty stated by the source.

Experiment: self-splicing fitness, log relative to wild type (ln ratio); higher = more splicing; Tetrahymena group I intron in knt gene, E. coli kanamycin selection, DiMSum; sequences stand for … in CUCUCU…GGAGGGAAAAGUUAUCAGGCAUGCACCUGGUAGCUAGUCUUUAAACCAAUAGAUUGCAUCGGUUUAAAAGGCAAGACCGUCAAAUUGCGGGAAAGGGGUCAACAGCCGUUCAGUACCAAGUCUCAGGGGAAACUUUGAGAUGGCCUUGCAAAGGGUAUGGUAAUAAGCUGACGGACAUGGUCCUAACCACGCAGCCAAGUCCUAAGUCAACAGAUCUUCUGUUGAUAUGGAUGCAGUUCACAGACUAAAUGUCGGUCGGGGAAGAUGUAUUCUUCUCAUAAGAUAUAGUCGGACCUCUCCUUAAUGGGAGCUAGCGGAUGAAGUGAUGCAACACUGGAGCCGCUGGGAACUAAUUUGUAUGCGAAAGUAUAUUGAUUAGUUUUGGAGUACUCGUGGUCG
Outline: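 Colonies from six replicate transformations of E. coli BL21(DE3) were pooled and amplicon-sequenced on an Illumina HiSeq 2500. The library placed an intron with all eight P1ex-region nucleotides randomised inside the knt kanamycin-resistance gene on pET-22b(+), and cells grew overnight at 37°C or 30°C on LB agar with or without 25 μg/mL kanamycin (plus 100 μg/mL carbenicillin, 50 μM IPTG, 0.2% rhamnose). Fitness is the DiMSum error-weighted combination of wild-type-normalised replicate fold changes, kanamycin versus none.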

| Sequence | self-splicing fitness (ln) (30 °C) | self-splicing fitness (ln) (37 °C) |
| --- | --- | --- |
| UUACAGCAAUAUUACGUGAA | -1.16 ± 0.054 | -0.338 ± 0.066 |
| UGUCAGCAAUAUUACGUUGA | -3.77 ± 0.23 | -2.47 ± 0.19 |
| UAGUAGCAAUAUUACGGGGC | -3.84 ± 0.39 | -2.68 ± 0.27 |
| AGCAAGCAAUAUUACGUCGG | -2.93 ± 0.19 | -1.59 ± 0.19 |
| GAUCAGCAAUAUUACGUCUA | -0.327 ± 0.071 | 0.145 ± 0.086 |
| GUAGAGCAAUAUUACGGAUU | -2.61 ± 0.24 | -0.513 ± 0.2 |
| UAGCAGCAAUAUUACGGCGG | -0.483 ± 0.084 | -0.353 ± 0.13 |
| CAAUAGCAAUAUUACGCCCG | -0.472 ± 0.17 | -0.0129 ± 0.23 |
| GGGAAGCAAUAUUACGUCAG | -2.92 ± 0.33 | -2.52 ± 0.33 |
| UAGAAGCAAUAUUACGUCUA | -1.81 ± 0.16 | -0.539 ± 0.14 |
| ACUUAGCAAUAUUACGGGAU | -2.08 ± 0.11 | -0.352 ± 0.098 |
| CGUGAGCAAUAUUACGUGUA | -3.18 ± 0.22 | -3.91 ± 0.31 |
| CACCAGCAAUAUUACGCCCG | -0.197 ± 0.14 | 0.343 ± 0.19 |
| UCCGAGCAAUAUUACGCCGU | -2.21 ± 0.22 | – |
| UGAAAGCAAUAUUACGCAGU | -3.25 ± 0.22 | -1.3 ± 0.13 |
| AACUAGCAAUAUUACGACAA | -0.829 ± 0.064 | -0.603 ± 0.066 |
| GCUUAGCAAUAUUACGGCCC | 0.0255 ± 0.31 | – |
| GGUAAGCAAUAUUACGCUAA | -2.29 ± 0.18 | 0.0407 ± 0.15 |
| GAGCAGCAAUAUUACGCGCG | -1.25 ± 0.1 | 0.406 ± 0.12 |
| AAUAAGCAAUAUUACGUGAG | -0.815 ± 0.065 | -0.198 ± 0.093 |
| CUCCAGCAAUAUUACGUAAU | -4.88 ± 0.23 | -3.21 ± 0.2 |
| CCCCAGCAAUAUUACGGCGG | -3.53 ± 0.17 | -2.99 ± 0.24 |
| UGGAAGCAAUAUUACGAAGU | -3.57 ± 0.35 | – |
| GACAAGCAAUAUUACGGAUA | -1.52 ± 0.12 | -1.47 ± 0.12 |
| CGGUAGCAAUAUUACGAUUG | -0.538 ± 0.073 | -0.0537 ± 0.095 |
| UUCAAGCAAUAUUACGGACG | -1.48 ± 0.15 | -0.868 ± 0.18 |

| Sequence | self-splicing fitness (ln) (30 °C) | self-splicing fitness (ln) (37 °C) |
| --- | --- | --- |
| GGCCAGCAAUAUUACGUCAA | -1.34 ± 0.31 | -2.61 ± 0.35 |
| ACCUAGCAAUAUUACGGGUA | -1.76 ± 0.12 | -1.19 ± 0.088 |
| CGGCAGCAAUAUUACGUCAG | -2.04 ± 0.099 | -0.000984 ± 0.1 |
| AAGUAGCAAUAUUACGCAAC | -3.33 ± 0.25 | -2.87 ± 0.35 |
| ACUCAGCAAUAUUACGGUCU | -0.745 ± 0.057 | 0.311 ± 0.079 |
| AGACAGCAAUAUUACGGCUG | -2.93 ± 0.14 | -2.34 ± 0.19 |
| UGUUAGCAAUAUUACGUAGA | -2.29 ± 0.12 | -0.809 ± 0.14 |
| AAUGAGCAAUAUUACGCCAG | -3.99 ± 0.3 | -2.87 ± 0.47 |
| UAUCAGCAAUAUUACGACGC | -2.09 ± 0.13 | -0.508 ± 0.13 |
| ACGGAGCAAUAUUACGUUCG | -1.33 ± 0.097 | -0.333 ± 0.13 |
| UCGCAGCAAUAUUACGGGAA | -2.44 ± 0.15 | -1.49 ± 0.13 |
| UGCUAGCAAUAUUACGUGCC | – | -0.724 ± 0.3 |
| UUGGAGCAAUAUUACGCGGU | -2.83 ± 0.26 | -2.14 ± 0.38 |
| UCAAAGCAAUAUUACGUCGC | -3.36 ± 0.18 | -2.43 ± 0.25 |
| UGCCAGCAAUAUUACGGGAC | -3.51 ± 0.34 | -1.95 ± 0.3 |
| CGAUAGCAAUAUUACGCGUG | -1.89 ± 0.092 | -0.431 ± 0.1 |
| AGCAAGCAAUAUUACGUUGA | -2.95 ± 0.12 | -1.37 ± 0.1 |
| GGCGAGCAAUAUUACGAGGA | -3.43 ± 0.43 | -2.43 ± 0.25 |
| AACCAGCAAUAUUACGUCAU | -1.23 ± 0.063 | -1.14 ± 0.067 |
| GAUUAGCAAUAUUACGAGUG | -1.25 ± 0.094 | -0.616 ± 0.1 |
| CGAGAGCAAUAUUACGAGUG | -3.53 ± 0.26 | -0.803 ± 0.14 |
| AGUGAGCAAUAUUACGGUGC | -3.77 ± 0.27 | -1.91 ± 0.22 |
| AACUAGCAAUAUUACGAAUC | -2.81 ± 0.17 | -1.27 ± 0.19 |
| CUGCAGCAAUAUUACGAGGA | -3.68 ± 0.22 | -2.39 ± 0.18 |
| AUUCAGCAAUAUUACGUGUG | -1.9 ± 0.062 | -0.699 ± 0.067 |
| GGUCAGCAAUAUUACGCGUC | -1.46 ± 0.17 | 0.149 ± 0.19 |

| Sequence | self-splicing fitness (ln) (30 °C) | self-splicing fitness (ln) (37 °C) |
| --- | --- | --- |
| UAGUAGCAAUAUUACGAGUU | -3.96 ± 0.28 | -2.75 ± 0.23 |
| GACAAGCAAUAUUACGUUCG | -2.99 ± 0.19 | -1.61 ± 0.12 |
| UGAGAGCAAUAUUACGAGGG | -3.68 ± 0.35 | -1.09 ± 0.36 |
| GAUGAGCAAUAUUACGCCGU | – | -2.33 ± 0.46 |
| GAGGAGCAAUAUUACGCGGU | -3.21 ± 0.28 | -2.76 ± 0.31 |
| ACCUAGCAAUAUUACGAGGC | -1.58 ± 0.18 | -2.64 ± 0.25 |
| UGUUAGCAAUAUUACGUCAU | -2.42 ± 0.3 | -1.35 ± 0.24 |
| GCCAAGCAAUAUUACGUGGC | -3.84 ± 0.2 | -3.04 ± 0.28 |
| CCCGAGCAAUAUUACGUUGG | -4.15 ± 0.18 | -2.09 ± 0.14 |
| CUCGAGCAAUAUUACGACAU | -3.527 ± 0.027 | -2.07 ± 0.038 |
| AUCGAGCAAUAUUACGCGAA | -1.68 ± 0.2 | -0.699 ± 0.2 |
| CCAGAGCAAUAUUACGAUUA | -3.29 ± 0.3 | – |
| AUGUAGCAAUAUUACGCCCA | -0.905 ± 0.12 | -0.148 ± 0.2 |
| GAGGAGCAAUAUUACGUCGC | – | -1.54 ± 0.33 |
| AGACAGCAAUAUUACGAAAU | -2.88 ± 0.17 | -1.43 ± 0.14 |
| AUUGAGCAAUAUUACGUACA | -3.85 ± 0.27 | -1.87 ± 0.16 |
| CACCAGCAAUAUUACGGUCA | -0.569 ± 0.05 | 0.174 ± 0.062 |
| UUCCAGCAAUAUUACGAUAA | 0.0765 ± 0.06 | 0.459 ± 0.071 |
| CGUCAGCAAUAUUACGCAUA | -2.88 ± 0.32 | -2.59 ± 0.19 |
| AGAUAGCAAUAUUACGAUUC | -1.7 ± 0.12 | -0.442 ± 0.16 |
| ACAAAGCAAUAUUACGGCGA | -0.177 ± 0.072 | 0.19 ± 0.094 |
| AGGAAGCAAUAUUACGUUAG | -2.95 ± 0.21 | -3.24 ± 0.29 |
| AUGUAGCAAUAUUACGUCGG | -3.01 ± 0.35 | -2.18 ± 0.28 |
| GUGAAGCAAUAUUACGUGAU | -1.97 ± 0.12 | -1.03 ± 0.14 |
| AAGAAGCAAUAUUACGAUCC | -0.553 ± 0.14 | -0.745 ± 0.18 |
